According to paper PMC2139968 (The Journal of Cell Biology, 1997):

Biological target: F-actin (rabbit, UniProt P68135 1-377)
Experiment: co-sedimentation

stoichiometry N: ~8 actin molecules per His6-neurabin molecule
B1: His6-neurabin (natural protein)
chain: not shown
